One data set deals with MCF7. As to the kind of experiment: percentage of EdU-negative (G0-arrested) nuclei per well, 72 h; higher = more G0 arrest. The note with it: reference: sequence is the full UniProt precursor, the tested protein was the secreted form or ectodomain.
For a further data set, the system named is hTERT-HMEC. The data set is described as above. The settings on record: reference: sequence is the full UniProt precursor, the tested protein was the secreted form or ectodomain.
[1] abbreviates: protein concentration 0.02117 µM.
The mark [2] stands for this setting: protein concentration 0.2117 µM.
Setting [3] is: protein concentration 0.0153175 µM.
Setting [4] is: protein concentration 0.153175 µM.
Where [5] appears, read: protein concentration 0.0225 µM.
Setting [6] is: protein concentration 0.01025 µM.
[7] abbreviates: protein concentration 0.1025 µM.
The mark [8] stands for this setting: protein concentration 0.03125 µM.
Setting [9] is: protein concentration 0.3125 µM.
Where [10] appears, read: protein concentration 0.02778 µM.
Setting [11] is: protein concentration 0.2778 µM.
The mark [12] stands for this setting: protein concentration 0.021155 µM.
Where [13] appears, read: protein concentration 0.21155 µM.

Consider eight sequences from the supplement of paper PMC11316812.

± gives the standard deviation of the averaged measurements.
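Also: secreted proteins added to cultured cells, EdU pulse at the end, nuclei found by Hoechst imaging, EdU status from nuclear versus surrounding ring intensity ratio, PBS as neutral control.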

On to “MSPLLRRLLLAALLQLAPAQAPVSQPDAPGHQRKVVSWIDVYTRATCQPREVVVPLTVELMGTVAKQLVPSCVTVQRCGGCCPDDGLECVPTGQHQVRMQILMIRYPSSQLGEMSLEEHSQCECRPKKKDSAVKPDRAATPHHRPQPRSVPGWDSAPGAPSPADITHPTPAPGPSAHAAPSTTSALTPGPAAAAADAAASSVAKGGA”, for which the “percentage of EdU-negative” value in the data set on MCF7 (setting [1]) worked out at 25 ± 0.51%; in the data set with MCF7 (setting [2]) it was 26.88 ± 0.25%; in the data set on hTERT-HMEC (setting [1]), 4.57 ± 0.19%; with hTERT-HMEC (setting [2]) it was 6.4 ± 1.3%.
“MSPNFKLQCHFILIFLTALRGESRYLELREAADYDPFLLFSANLKRELAGEQPYRRALRCLDMLSLQGQFTFTADRPQLHCAAFFISEPEEFITIHYDQVSIDCQGGDFLKVFDGWILKGEKFPSSQDHPLPSAERYIDFCESGLSRRSIRSSQNVAMIFFRVHEPGNGFTLTIKTDPNLFPCNVISQTPNGKFTLVVPHQHRNCSFSIIYPVVIKISDLTLGHVNGLQLKKSSAGCEGIGDFVELLGGTGLDPSKMTPLADLCYPFHGPAQMKVGCDNTVVRMVSSGKHVNRVTFEYRQLEPYELENPNGNSIGEFCLSGL”: the “percentage of EdU-negative” value in the data set with MCF7 (setting [3]) is 25.7 ± 1.4%; with MCF7 (setting [4]), 28.3 ± 0.6%; in the data set on hTERT-HMEC (setting [3]), 5.2 ± 0.25%; in the data set with hTERT-HMEC (setting [4]), 6.58 ± 0.22%.
On to “MSPSPTALFCLGLCLGRVPAQSGPLPKPSLQALPSSLVPLEKPVTLRCQGPPGVDLYRLEKLSSSRYQDQAVLFIPAMKRSLAGRYRCSYQNGSLWSLPSDQLELVATGVFAKPSLSAQPGPAVSSGGDVTLQCQTRYGFDQFALYKEGDPAPYKNPERWYRASFPIITVTAAHSGTYRCYSFSSRDPYLWSAPSDPLELVVTGTSVTPSRLPTEPPSPVAEFSEATAELTVSFTNEVFTTETSRSITASPKESDSPAGPARQYYTKGNLVRICLGAVILIILAGFLAEDWHSRRKRLRHRGRAVQRPLPPLPPLPLTRKSNGGQDGGRQDVHSRGLCS [Q9HCN6]”, for which the “percentage of EdU-negative” value is 24.78 ± 0.15% with MCF7 (setting [5]), 24.9 ± 1.1% in the data set on MCF7 (protein concentration 0.225 µM), 4.56 ± 0.87% with hTERT-HMEC (setting [5]) and 5.35 ± 0.6% with hTERT-HMEC (protein concentration 0.225 µM).
“MSRELAPLLLLLLSIHSALAMRICSFNVRSFGESKQEDKNAMDVIVKVIKRCDIILVMEIKDSNNRICPILMEKLNRNSRRGITYNYVISSRLGRNTYKEQYAFLYKEKLVSVKRSYHYHDYQDGDADVFSREPFVVWFQSPHTAVKDFVIIPLHTTPETSVKEIDELVEVYTDVKHRWKAENFIFMGDFNAGCSYVPKKAWKNIRLRTDPRFVWLIGDQEDTTVKKSTNCAYDRIVLRGQEIVSSVVPKSNSVFDFQKAYKLTEEEALDVSDHFPVEFKLQSSRAFTNSKKSVTLRKKTKSKRS”: the “percentage of EdU-negative” value in the data set on MCF7 (setting [6]) is 28.5 ± 1.3%; in the data set with MCF7 (setting [7]) it was 27 ± 2%; in the data set with hTERT-HMEC (setting [6]) it was 4.824 ± 0.022%; with hTERT-HMEC (setting [7]) it was 5.74 ± 0.076%.
As to “MSRGLQLLLLSCAYSLAPATPEVKVACSEDVDLPCTAPWDPQVPYTVSWVKLLEGGEERMETPQEDHLRGQHYHQKGQNGSFDAPNERPYSLKIRNTTSCNSGTYRCTLQDPDGQRNLSGKVILRVTGCPAQRKEETFKKYRAEIVLLLALVIFYLTLIIFTCKFARLQSIFPDFSKAGMERAFLPVTSPNKHLGLVTPHKTELV”, the “percentage of EdU-negative” value with MCF7 (setting [5]) amounted to 25.6 ± 5.2%; with MCF7 (protein concentration 0.225 µM), 25.7 ± 2.3%; in the data set with hTERT-HMEC (setting [5]), 4.68 ± 0.067%; in the data set with hTERT-HMEC (protein concentration 0.225 µM), 8.57 ± 0.3%.
Consider “MSRLPVLLLLQLLVRPGLQAPMTQTTPLKTSWVNCSNMIDEIITHLKQPPLPLLDFNNLNGEDQDILMENNLRRPNLEAFNRAVKSLQNASAIESILKNLLPCLPLATAAPTRHPIHIKDGDWNEFRRKLTFYLKTLENAQAQQTTLSLAIF”, for which the “percentage of EdU-negative” value in the data set with MCF7 (setting [8]) was found to be 27.8 ± 0.94%; with MCF7 (setting [9]), 23.6 ± 1.8%; in the data set on hTERT-HMEC (setting [8]), 5.21 ± 0.57%; in the data set with hTERT-HMEC (setting [9]) it was 4.85 ± 0.58%.
Consider “MSRPQLRRWRLVSSPPSGVPGLALLALLALLALRLAAGTDCPCPEPELCRPIRHHPDFEVFVFDVGQKTWKSYDWSQITTVATFGKYDSELMCYAHSKGARVVLKGDVSLKDIIDPAFRASWIAQKLNLAKTQYMDGINIDIEQEVNCLSPEYDALTALVKETTDSFHREIEGSQVTFDVAWSPKNIDRRCYNYTGIADACDFLFVMSYDEQSQIWSECIAAANAPYNQTLTGYNDYIKMSINPKKLVMGVPWYGYDYTCLNLSEDHVCTIAKVPFRGAPCSDAAGRQVPYKTIMKQINSSISGNLWDKDQRAPYYNYKDPAGHFHQVWYDNPQSISLKATYIQNYRLRGIGMWNANCLDYSGDAVAKQQTEEMWEVLKPKLLQR”, for which the “percentage of EdU-negative” value in the data set with MCF7 (setting [10]) came to 25.1 ± 3.2%; in the data set with MCF7 (setting [11]), 24.6 ± 1.1%; with hTERT-HMEC (setting [10]), 5.6 ± 0.68%; in the data set with hTERT-HMEC (setting [11]), 6.64 ± 0.1%.
As for “MSRQLLPVLLLLLLRASCPWGQEQGARSPSEEPPEEEIPKEDGILVLSRHTLGLALREHPALLVEFYAPWCGHCQALAPEYSKAAAVLAAESMVVTLAKVDGPAQRELAEEFGVTEYPTLKFFRNGNRTHPEEYTGPRDAEGIAEWLRRRVGPSAMRLEDEAAAQALIGGRDLVVIGFFQDLQDEDVATFLALAQDALDMTFGLTDRPRLFQQFGLTKDTVVLFKKFDEGRADFPVDEELGLDLGDLSRFLVTHSMRLVTEFNSQTSAKIFAARILNHLLLFVNQTLAAHRELLAGFGEAAPRFRGQVLFVVVDVAADNEHVLQYFGLKAEAAPTLRLVNLETTKKYAPVDGGPVTAASITAFCHAVLNGQVKPYLLSQEIPPDWDQRPVKTLVGKNFEQVAFDETKNVFVKFYAPWCTHCKEMAPAWEALAEKYQDHEDIIIAELDATANELDAFAVHGFPTLKYFPAGPGRKVIEYKSTRDLETFSKFLDNGGVLPTEEPPEEPAAPFPEPPANSTMGSKEEL”, the “percentage of EdU-negative” value in the data set on MCF7 (setting [12]) was 34 ± 1.9%; in the data set with MCF7 (setting [13]), 26.76 ± 0.05%; in the data set on hTERT-HMEC (setting [12]), 5.52 ± 0.95%; in the data set with hTERT-HMEC (setting [13]) it was 5.36 ± 0.59%.
